# Legend:
# [1] = target: nsp12 (RNA-dependent RNA polymerase);nsp7;nsp8;nsp13 helicase (SARS-CoV-2;SARS-CoV-2;SARS-CoV-2;SARS-Co …, UniProt P0DTD1;P0DTD1;P0DTD1;P0DTD1 4393-5324;3860-3942;3943-4140;5325-5925, |||); experiment: EMSA
# [2] = target: nsp12 (RNA-dependent RNA polymerase);nsp7;nsp8 (SARS-CoV-2;SARS-CoV-2;SARS-CoV-2, UniProt P0DTD1;P0DTD1;P0DTD1 4393-5324;3860-3942;3943-4140, ||); experiment: EMSA
binder,measurement,setting,value
"RNA scaffold (template-product, cryo-EM primer and template, Figure 1A) (dsRNA) RNA 1: CUAUCCCCAUGUGAUUUUAAUAGCUUCUUAGGAGAAUGACGUAGCAUGCUACGCG RNA 2: CGCGUAGCAUGCUACGUCAUUCUCCUAAGAAGCUA",binding result,[1],binds
same,binding result,[2],binds

# From PMC7386476
